Laboratory results from US20050260697.

How the values were obtained:
[1] = target: human cardiac Troponin-T2 (UniProt P45379)
[2] = target: human cardiac Troponin-I3 (UniProt P19429)
Chain of human cardiac Troponin-I3 (P19429 whole entry, looked up): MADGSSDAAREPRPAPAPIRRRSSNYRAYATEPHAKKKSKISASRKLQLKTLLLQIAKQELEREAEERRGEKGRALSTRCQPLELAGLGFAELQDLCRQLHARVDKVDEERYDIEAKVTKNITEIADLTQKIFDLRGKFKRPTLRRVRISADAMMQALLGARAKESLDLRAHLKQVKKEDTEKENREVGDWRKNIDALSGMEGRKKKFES

Substance: calpain-2
- in vitro protease digestion, breakdown products on gels [1]: human cardiac Troponin-T2 and Troponin-13 were cleaved by calpain-2 and caspase-3 proteases, producing unique breakdown products
- stated: cleaves (breakdown bands on a gel) [1]: in the two Calpain-2 lanes (rising amount) the Troponin-T2 band at the 30 kDa mark fades and a band b appears between the 15 and 10 kDa marks; arrowheads a, b and c mark products between 15 and 10 kDa beside the higher-amount lane; none of these is in the untreated lane
- in vitro protease digestion, breakdown products on gels [2]: human cardiac Troponin-T2 and Troponin-13 were cleaved by calpain-2 and caspase-3 proteases, producing unique breakdown products
- stated: cleaves (breakdown bands on a gel) [2]: the Tn-I3 (24 kDa) band stays in both Calp-2 lanes (rising amount); arrows A and B mark two faint products below it at the higher-amount lane
